Laboratory results as given in US20090093002A1.

Biological target: biotinylated complete Aβ1-42 peptide (Bachem) (UniProt P05067)
Assay: ELISA on biotinylated complete Aβ1-42 peptide

Chain of biotinylated complete Aβ1-42 peptide (Bachem) (P05067 672-713 limits assumed): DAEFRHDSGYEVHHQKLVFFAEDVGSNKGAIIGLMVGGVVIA

- O.D: 0.196 O.D
Substance: Control IgG (antibody)
